A short description of the data set: soluble on expression in E. coli; label from the status in PepcDB or PDB records.
Take “MSLQESSFVHLHNHTQFSVLQSTMAVPDLVAAAAKHNMPAVAITDHANMMGAFHFVNAVKKHNSAIANDSENTSQPIKPIIGCEFFVCEDHTDRTHKDNGYQMVILAKNKKGYHNLAKMSSMGFTKGFYYIPRIDKKLIETYKDDLIVLSGSLYGEIASKLLNLGENQAEESLVWWKETFGDDFYVEIMRHQQEDEERANEALIRLANKHDINLVATNNTYYADQKDANAHDILLCVKEGEKQATPIGRGRGYRYGLPNDQYYFKSAEEMKSLFKDLPQAISNTEAIANKVEAFELAREVLLPAFVIPEQFLDEADKTDAGKRGENAYLKHLTFEGAKRRYGELSEEIKDRLDFELSVIANTGYPGYFLIVEDFIREARKMGVSVGPGRGSAAGSAVAYCLKITNIDPIKYDLLFERFLNPERVSMPDIDIDFDDEGRSKVMDYVIEKYGQNQVAQIITYGTMAAKSAIRDTARVLDLPLYEADRIAKLIPDMSKLGKIFSMNEKEEGHHHHHH”: the “soluble on expression in E. coli” value is listed as “soluble”. Take “MSLQNAKLMLTCLAFAGLAALAGCSFPGVYKIDIQQGNVVTQDMIDQLRPGMTRRQVRFIMGNPLIVDTFHANRWDYLYSIQPGGGRRQQERVSLFFNDSDQLAGLNGDFMPGVSRDEAILGKEGSTTVTQPADQQKPEAQKEEPPKPGSTLEQLQREVDEAQPVPVPTPEPLDPSPQEGHHHHHH”: the “soluble on expression in E. coli” value is given as “soluble”. Consider “MSLQSKEDFIEMRVPASAEYVSLIRLTLSGVFSRAGATYDDIEDAKIAVSEAVTNAVKHAYKENNNVGIINIYFEILEDKIKVVISDKGDSFDYETTKSKIGPYDKDENIDFLREGGLGLFLIESLMDEVTVYKESGVTISMTKYIKKEQVRNNGERVEISEGHHHHHH”, for which the “soluble on expression in E. coli” value is reported as “soluble”. As for “MSLRASDDKALQYAIAEITEIATGFGLDFYPMRYEICPAEIIYTFGAYGMPTRFSHWSFGKQFFRMKLQYDLGLSKIYELVINSDPCYAFLLDTNSLIQNKLIVAHVLAHCDFFKNNIRFSNTKRDMVESMSATAERVKAYEHKYGKEEVETFLDAVLAIQEHIDPSLMRPKLAWSIDDLEEEEVEKKKASQYDDLWNLDNRNKKQERSNVRKKKKIPPQPEKDLLLFIEEYSRELEDWQRDILTMMREEMLYFWPQLETKIMNEGWASFWHQRILREMDLTSDEAIEFAKLNAGVVQPSKTSINPYYLGIKMFEDIEERYNNPTEEMKRRGVKPGSGRDKIFEVREIEWDVSFLRNYLNKDLVMREDMYLFQRQGKEYKVIDKEWEHVRDQLVNMRTNGGFPYLVVEDGDYLKNGELYIKHSYEGIELDLKYLEKVLPYLHQLWGRTVHMESIVESKGVVFSYDGKMVHRKYVEGHHHHHH”, the “soluble on expression in E. coli” value is “not soluble”. “MSLREAVLANLKKITDPVSGQDIVSAGIVRALNVEGDTVRFVIEIDPKLAERMEPVRAAAEKAAQMVEGVAKVSAMMTAHSDKAPPELKPRAKAAPQGPQPVAGVDRIVAVASGKGGVGKSTVSANLACALAAEGRRVGLLDADVYGPSQPRMLGVSGRPASPDGKTILPLRNHGVTMMSMGLMTNEGQAVVWRGPMLMGALQQMMNQVQWGGLDVLIVDLPPGTGDVQLTLSQKFAVDGAIIVSTPQDVALIDARKGIDMFRQLKTPILGMIENMSTHICSNCGHEEHVFGHGGVAAEAEKLGVPLLGEIPLHLDIRVAADGGAPIVVSKPDSPQAEAFRRIARDLIAKGQALEHHHHHH”: the “soluble on expression in E. coli” value is reported as “soluble”. In the case of “MSLRERPVIDELSKVKKLKLTGQTEALFESWRSSWDEIETRLFPDLEEVLLEAEMNTDRYKFRSATHAENDIEQMLVVIEKQMDQILGGLKELLISEEKNAKESRATKEKFAELRREVLTRGFKLGETLPYIETKLSELSESLNSYDSLTDQGDHLEAREIVIVVQKEMQVIEAQMERIPSLLHETDTILPEEMTKLRAGYEEMVRKGYYLAQMELDKEISRMKNQIDKMKKNVINLDLDEAEQGVEELHNEIDLFYDTLEHEAEARHFVKENHSPTSDKLQRQNAVSDALAEQITEVKQTYHVAEDDLAVYLKTSAKLSEAKENFEQLTALIASGEIAYSAAQDTLKEIDAALITISAEQDKFAEELRSLRKDELEARDDAERMRRAIITLDRKMERERLPGLPEEYLSLREHMGESINALEKRLEEKPLNMKAVSQDWRIAEEDLTHLTEKAEEMMENVRLVEHVIQYANRYRLRNKELADELVQAENHFYNDYQYKKALEIAVTALEKVETGAFKKVEKAYESKVSVDEGHHHHHH”, the “soluble on expression in E. coli” value is “not soluble”.

As for “MSLRESVLKIYNWADYIDEDMLAEFPRWYKEQTGEDIRIVYQTFDINEIMLTKIERGHEDFDVVCPSEYIIERMLRKGLLLPIDTVFGKTPNYLHNESPYIREQLDKLSWSGHRASDYAIGYMWGTAGILFNTDHVPAEDARTWASLWNLKYENKILMKESYRDAYGTALIYANAEDLKKGKVTVEELMNNYSQASIDTVEKYLKAMKPLIAGWEADFGKEMMTKGKAWLNMTWSGDAVWAIEEAEGVGIHLDYEVPVEGSNVWYDGWVIPKYARNKKAASYFINYLCRPDVALRNMDACGYVSAVATPEILEAKIDTTLSYFADLSYFFGPAADSIQIDKVQYPDRTVVERCAMIRDSGDKTELVLEMWSRVKGDNEGHHHHHH”, the “soluble on expression in E. coli” value is “soluble”. In the case of “MSLRFALTPGEPAGIGPDLCLLLARSAQPHPLIAIASRTLLQERAGQLGLAIDLKDVSPAAWPERPAKAGQLYVWDTPLAAPVRPGQLDRANAAYVLETLTRAGQGCLDGHFAGMITAPVHKGVINEAGIPFSGHTEFLADLTHTAQVVMMLATRGLRVALATTHLPLREVADAISDERLTRVARILHADLRDKFGIAHPRILVCGLNPHAGEGGHLGREEIEVIEPCLERLRGEGLDLIGPLPADTLFTPKHLEHCDAVLAMYHDQGLPVLKYKGFGAAVNVTLGLPIIRTSVDHGTALDLAGSGRIDSGSLQVALETAYQMAASRC”, the “soluble on expression in E. coli” value is “soluble”.

As for “MSLRFGNRKLRQQQALQYELEKNKAELEEYREELVSHFARSAELLDTMAHDYRQLYQHMAKSSSSLLPEMSAESNPFRNRLAESEASNDQAPVQMPRDYSEGASGLLRSGAKRDEGHHHHHH”, the “soluble on expression in E. coli” value is given as “not soluble”. “MSLRHMQIETVNLPLARPMAAENGTRHAVTVIRVALEEKGFIGQGECTPAAHYGESADSVCRQLSAIREAIENGLTIEQLQQNLSPGAARNALDCALWRLNTALEKQTLWQRVGIHPPTSVVCAQTLALDSVEKMATAASNAVSHGALLLKIKLDRELILEKVAAIRAAAPNARLIIDARASWSGLDLHSLSTALLPYQVAMIEQPLPVGKDEDLQRFAHPIPICADESCRHSGDIVGLRRRYDMINIKLDKCGGLTEALAMVREAHFHGLRIMVGCTLGSSMAMEAALPVAADAEHVDLDGPIWLAADSSPYLTYNLGRIWLEGHHHHHH”: the “soluble on expression in E. coli” value is reported as “soluble”.

Turning to “MSLRIKDIARLANVSVGTVDRVLHGRSGVSEASRKRVEEILKQLDYQPNMYASALASNKKYTFACLLPKHLEGEYWTDVQKGIREAVTTYSDFNISANITHYDPYDYNSFVATSQAVIEEQPDGVMFAPTVPQYTKGFTDALNELGIPYIYIDSQIKDAPPLAFFGQNSHQSGYFAARMLMLLAVNDREIVIFRKIHEGVIGSNQQESREIGFRQYMQEHHPACNILELNLHADLNIEDSRMLDDFFREHPDVKHGITFNSKVYIIGEYLQQRRKSDFSLIGYDLLERNVTCLKEGTVSFLIAQQPELQGFNSIKTLCDHLIFRKEVACTNYMPIDLLTKENIDYYHSEGHHHHHH”, the “soluble on expression in E. coli” value is “soluble”. Then “MSLRKASVFIVELKFEQESCPLGVVIPLEESKNKLASVKPLVDLTRADMEQVNQLILSRAGSDVQMIPEVANHLISSGGKRLRPMLTLASASMFGYEGDHHIKLATSVEFMHTATLLHDDVVDESDLRRGKSTARTIWGNQASVLVGDFLLGQAFRMMVDVGSLDALDVLSTAASVIAEGEVLQLSVAKNMETTEDDYLQVIRAKTAALFAAAAEVGPIVAKTDKASRSALKSYGMNLGLAFQLVDDVLDYGGKSADLGKNTGDDFREGKITLPVILSYRRGTQDERAFWRNAIENGESSDENLEKALGLITKYNGLGDTIGRATHYGTIARDALAPLPESPWKNALLEVIDFCIERLNEGHHHHHH”, with “soluble”.

As to “MSLRKNPYRLSDEIFGISFRTADRIAKSLGIDPYSKYRISSGIKYVLSRAATEGHTFLEEEMLKSYTSKLLDINIDSIEDALVSLVLNKSVYVDRNDGMSKIYLSSFYHAELGVCRKLVELSQVRYSADMEDFEERIKQVQKKEGIILADKQKEAIREAMTNGVLVITGGPGTGKTTIIKSIISLLESEGYEFALAAPTGRAAKRMSEATGYEAKTIHRLLEIGYTSNEDELVFMRTEDNPIEADVVIIDEMSMVDIILMYHLLKAIVCGTRLILVGDVDQLPSVGPGNVLRDIIKSGMIKTVKLSEIFRQAGESMIVVNAHRINRGEHPILNEREKDFFFVTRNSQNDILKTVVDLCTRRIPDTYGYDPMKQIQVLSPMRKGTVGVANLNIELQKVLNPEDGKEGHHHHHH”, the “soluble on expression in E. coli” value was “soluble”. The same measure for “MSLRLRKDVLNYESRQKSDLLIPNSNSISIYNQIADKYSRKITREEIFSGIYFLRYFLLRNAKGDVLEVGSGPGTNFPFYKWKKINTLTLVEPAEKMREIADARAKKKVPPNVLYRQFADLRQLPPNQSYDTIIQTFCICSQEKAVEQLNNYRSLLRSDGRILLIEHGKGKYKFLNRILNAYAESHYESWGCVWNRDIEQLLEDSELTIDSCKRFNFGTTYVIEAHEGHHHHHH”: “not soluble”. Consider “MSLRQPNPSQKKAPTGQVRIISGLWRGRKLPVHDAEGLRPTTDRVKETLFNWLAQEVPNARCLDLFAGSGGLGFECASRQANQVTMLELNPLAFQQLKTNVQSLKAENIELIHTDALAFLRQSGKPYDVVFIDPPFRQGLLQETTQLLEQNGWLAPQAMIYIECEKELPLTELPPHWHLHREKSAGQVCYREGHHHHHH”, for which the “soluble on expression in E. coli” value is given as “not soluble”. Consider “MSLRSDLINALYDENQKYDVCGIISAEGKIYPLGSDTKVLSTIFELFSRPIINKIAEKHGYIVEEPKQQNHYPDFTLYKPSEPNKKIAIDIKTTYTNKENEKIKFTLGGYTSFIRNNTKNIVYPFDQYIAHWIIGYVYTRVATRKSSLKTYNINELNEIPKPYKGVKVFLQDKWVIAGDLAGSGNTTNIGSIHAHYKDFVEGKGIFDSEDEFLDYWRNYERTSQLRNDKYNNISEYRNWIYRGRK”, for which the “soluble on expression in E. coli” value is recorded as “soluble”. With “MSLRVMIVDDHGTNRELCRFILAHIASHIDTFEDGQQAIDAMREMEILPDVILLDVMMPIKDGFVTAKEIRQAFVKHHIPIIFLTVLDDRDSFEKCLALGDDFILKPVERSVLIAKVQAHYRIVKMHNEGHHHHHH”, the “soluble on expression in E. coli” value is “not soluble”. Then “MSLRVMIVDDHGTNRELCRFILAHIASHIDTFEDGQQAIDAMREMEILPDVILLDVMMPIKDGFVTAKEIRQAFVKHHIPIIFLTVLDDRDSFEKCLALGDDFILKPVERSVLIAKVQAHYRIVKMHNEVMEQRDELRHFREQVQYDYAISESIFTNLMEEMCHQVEHIFGIHYISTPSTIFNGDLIVVANRPHGGVYVMIADATGHGLPAAISTIPATRTFFSTAQKGLSLGEMVIELNHSLERFLPVGMMLAASVFEVRANGFEISWWGGGLPEAYLLDHHGNIVSRLISNHMPLGVLPSNEFEADVQHFKLEPNQKLVCYTDGIIEAMNEQGEYFGQERLEHVLTKAYSEALIPTLYDAVKKFSNRGKGDDLSILTMTFPITNSNSSDKALPKVVLSCIPLQTELHFPADVLRKISLMNEVRRFLTGIVSGGEDLDLLCSVLSELFANAIEHGLLELDSSLKETPDGFFEFYQLRDKRLKTLPEYHWLILKVNYQPDKQRIEIDLEHSGKGFDCQALKDASNQKSYGRGILLATQLCESLEYSNQGRRVTAVYSFARKDTLHYSLPSEGHHHHHH”, with “soluble”.
